# Paper PMC9335285 (Proceedings of the National Academy of Sciences of the …, 2022)
# Biological target: the molecule itself
# Experiment: cross-linking
protein,measurement,value
full-length Mycobacterium tuberculosis MmpL3 (natural protein) MFAWWGRTVYRYRFIVIGVMVALCLGGGVFGLSLGKHVTQSGFYDDGSQSVQASVLGDQVYGRDRSGHIVAIFQAPAGKTVDDPAWSKKVVDELNRFQQDHPDQVLGWAGYLRASQATGMATADKKYTFVSIPLKGDDDDTILNNYKAIAPDLQRLDGGTVKLAGLQPVAEALTGTIATDQRRMEVLALPLVAVVLFFVFGGVIAAGLPVMVGGLCIAGALGIMRFLAIFGPVHYFAQPVVSLIGLGIAIDYGLFIVSRFREEIAEGYDTETAVRRTVITAGRTVTFSAVLIVASAIGLLLFPQGFLKSLTYATIASVMLSAILSITVLPACLGILGKHVDALGVRTLFRVPFLANWKISAAYLNWLADRLQRTKTREEVEAGFWGKLVNRVMKRPVLFAAPIVIIMILLIIPVGKLSLGGISEKYLPPTNSVRQAQEEFDKLFPGYRTNPLTLVIQTSNHQPVTDAQIADIRSKAMAIGGFIEPDNDPANMWQERAYAVGASKDPSVRVLQNGLINPADASKKLTELRAITPPKGITVLVGGTPALELDSIHGLFAKMPLMVVILLTTTIVLMFLAFGSVVLPIKATLMSALTLGSTMGILTWIFVDGHFSKWLNFTPTPLTAPVIGLIIALVFGLSTDYEVFLVSRMVEARERGMSTQEAIRIGTAATGRIITAAALIVAVVAGAFVFSDLVMMKYLAFGLMAALLLDATVVRMFLVPSVMKLLGDDCWWAPRWARRLQTRIGLGEIHLPDERKRPVSNGRPARPPVTAGLVAARAAGDPRPPHDPTHPLAESPRPARSSPASSPELTPALEATAAPAAPSGASTTRMQIGSSTEPPTTRLAAAGRSVQSPASTPPPTPTPPSAPSAGQTRAMPLAANRSTDAAGDPAEPTAALPIIRSDGDDSEAATEQLNARGTSDKTRQRRRGGGALSAQDLLRREGRL,binding result,binds
